Test results taken from the Human Domainome abundance scans (Beltran et al. 2025).
± gives the uncertainty stated by the source.

test: abundance fitness (aPCA) (normalised: wild type 0, dead -1); higher = more abundant; growth selection in yeast, the domain comes from the species named; conditions: Homo sapiens

Row | Substance | abundance fitness
1 | Transcriptional activator Myb K182Y, P10242 | -0.253 ± 0.17
2 | Transcriptional activator Myb P174K, P10242 | -0.086 ± 0.11
3 | Transcriptional activator Myb P174E, P10242 | -0.02 ± 0.098
4 | Transcriptional activator Myb K144C, P10242 | -0.095 ± 0.12
5 | Transcriptional activator Myb K192W, P10242 | -0.334 ± 0.11
6 | Transcriptional activator Myb W166Q, P10242 | -0.708 ± 0.1
7 | Transcriptional activator Myb N186M, P10242 | -0.007 ± 0.11
8 | Transcriptional activator Myb T177C, P10242 | -0.138 ± 0.075
9 | Transcriptional activator Myb T148G, P10242 | -0.31 ± 0.038
10 | Transcriptional activator Myb T188H, P10242 | -0.093 ± 0.1
11 | Transcriptional activator Myb E196H, P10242 | -0.196 ± 0.1
12 | Transcriptional activator Myb E150Q, P10242 | 0.026 ± 0.14
13 | Transcriptional activator Myb S146V, P10242 | -0.017 ± 0.29
14 | Transcriptional activator Myb I154T, P10242 | -0.185 ± 0.077
15 | Transcriptional activator Myb A180S, P10242 | -0.051 ± 0.083
16 | Transcriptional activator Myb Y198A, P10242 | 0.01 ± 0.086
17 | Transcriptional activator Myb R190K, P10242 | 0.137 ± 0.12
18 | Transcriptional activator Myb E194P, P10242 | 0.022 ± 0.21
19 | Transcriptional activator Myb M189I, P10242 | -0.313 ± 0.19
20 | Transcriptional activator Myb G197Y, P10242 | -0.265 ± 0.14
21 | Transcriptional activator Myb A170W, P10242 | -0.811 ± 0.12
22 | Transcriptional activator Myb R190V, P10242 | -0.01 ± 0.089
23 | Transcriptional activator Myb E196N, P10242 | -0.022 ± 0.089
24 | Transcriptional activator Myb T188G, P10242 | -0.058 ± 0.032
25 | Transcriptional activator Myb N183P, P10242 | -1.09 ± 0.14
26 | Transcriptional activator Myb L172A, P10242 | -0.291 ± 0.076

Row | Substance | abundance fitness
27 | Transcriptional activator Myb P174L, P10242 | -0.443 ± 0.082
28 | Transcriptional activator Myb W166C, P10242 | -0.566 ± 0.093
29 | Transcriptional activator Myb G163T, P10242 | -0.595 ± 0.11
30 | Transcriptional activator Myb T188N, P10242 | -0.204 ± 0.11
31 | Transcriptional activator Myb K144E, P10242 | -0.114 ± 0.14
32 | Transcriptional activator Myb E149G, P10242 | -0.143 ± 0.16
33 | Transcriptional activator Myb W166R, P10242 | -0.761 ± 0.062
34 | Transcriptional activator Myb L199F, P10242 | -0.179 ± 0.097
35 | Transcriptional activator Myb K204Q, P10242 | 0.192 ± 0.19
36 | Transcriptional activator Myb V193L, P10242 | -0.089 ± 0.089
37 | Transcriptional activator Myb N183G, P10242 | -0.067 ± 0.063
38 | Transcriptional activator Myb E196P, P10242 | -0.114 ± 0.1
39 | Transcriptional activator Myb K144T, P10242 | 0.101 ± 0.086
40 | Transcriptional activator Myb T148H, P10242 | -0.556 ± 0.045
41 | Transcriptional activator Myb Y198W, P10242 | -0.133 ± 0.095
42 | Transcriptional activator Myb D152N, P10242 | -0.227 ± 0.074
43 | Transcriptional activator Myb K171S, P10242 | 0.016 ± 0.071
44 | Transcriptional activator Myb E194M, P10242 | -0.229 ± 0.26
45 | Transcriptional activator Myb I169L, P10242 | -0.427 ± 0.086
46 | Transcriptional activator Myb N179A, P10242 | 0.001 ± 0.053
47 | Transcriptional activator Myb I181K, P10242 | -1.34 ± 0.35
48 | Transcriptional activator Myb K204C, P10242 | -0.317 ± 0.12
49 | Transcriptional activator Myb I169T, P10242 | -0.567 ± 0.11
50 | Transcriptional activator Myb S203V, P10242 | 0.055 ± 0.082
51 | Transcriptional activator Myb Y198R, P10242 | 0.054 ± 0.063
52 | Transcriptional activator Myb V193I, P10242 | -0.066 ± 0.1

Row | Substance | abundance fitness
53 | Transcriptional activator Myb E150I, P10242 | -0.172 ± 0.12
54 | Transcriptional activator Myb S187P, P10242 | -0.589 ± 0.11
55 | Transcriptional activator Myb T145M, P10242 | 0.117 ± 0.12
56 | Transcriptional activator Myb G175S, P10242 | -0.13 ± 0.074
57 | Transcriptional activator Myb N183E, P10242 | 0.011 ± 0.098
58 | Transcriptional activator Myb I181F, P10242 | -1.16 ± 0.38
59 | Transcriptional activator Myb G197S, P10242 | 0.01 ± 0.071
60 | Transcriptional activator Myb D178N, P10242 | -0.533 ± 0.35
61 | Transcriptional activator Myb R153T, P10242 | -0.125 ± 0.14
62 | Transcriptional activator Myb W185G, P10242 | -0.702 ± 0.046
63 | Transcriptional activator Myb A170T, P10242 | -0.771 ± 0.12
64 | Transcriptional activator Myb H184W, P10242 | -0.298 ± 0.073
65 | Transcriptional activator Myb A170M, P10242 | -0.393 ± 0.11
66 | Transcriptional activator Myb K144D, P10242 | 0.06 ± 0.14
67 | Transcriptional activator Myb G163D, P10242 | -0.356 ± 0.086
68 | Transcriptional activator Myb H184V, P10242 | -0.684 ± 0.048
69 | Transcriptional activator Myb Y156E, P10242 | -0.124 ± 0.055
70 | Transcriptional activator Myb E194A, P10242 | -0.055 ± 0.086
71 | Transcriptional activator Myb N186A, P10242 | -0.081 ± 0.07
72 | Transcriptional activator Myb E201S, P10242 | -0.105 ± 0.1
73 | Transcriptional activator Myb K192Q, P10242 | -0.337 ± 0.16
74 | Transcriptional activator Myb T188I, P10242 | 0.001 ± 0.092
75 | Transcriptional activator Myb L199E, P10242 | -0.005 ± 0.081
76 | Transcriptional activator Myb N179F, P10242 | -0.027 ± 0.12
77 | Transcriptional activator Myb E196S, P10242 | -0.052 ± 0.064
78 | Transcriptional activator Myb S187N, P10242 | -0.161 ± 0.14
